Test results from the DeepSol protein solubility set.

test: soluble on expression in E. coli; label from the status in PepcDB or PDB records

| Sequence | soluble on expression in E. coli |
| --- | --- |
| MNATAVAAAATGRQLHKFGGSSLADVKCYLRVANIMANYSHPGDLMVVSAAGSTTNQLISWLKLSQNDRLSAHQVQQSLRRYQHDLINGLLPPEMAEPLISEFIHDLERLAGLLDNKIDDVIYAEVVGHGEIWSARLMSALLNKLDMDAVWLDARRFLRAERAAQPQIDESRSYPLLQQLMAQHPHQRLVVTGFISRNEAGETVLLGRNGSDYSATQVGALAGAERVTIWSDVAGVYSADPRKVKDACLLPLLRLDEASELARLAAPVLHTRTLQPVSGSDIDLQLRCSYQPEQGSTRIERVLASGLGAKIVTSHDDVCLIELQIASHHDFSLAQKEIDLLLKRAQIKPLATGIHPDRNLLQLCYTSEVVNSALRVLEDAALPGKLSLREGLALVALVGAGVSKNPLHSHRFYQQLKDQPVEFVWQAEDGISMVAVLRLGPTEHLIQGLHQSLFRAEKRIGLMLFGKGNIGARWLELFAREQKSLSARSGFEFVLAGVVDSRRSLLSYDGLDASRTLAFYNDEAKEQDEESLFLWMRAHPFDDLVVLDVTASPSLAEQYLDFASYGFHVISANKLAGASSSNNYRQIRDAFAKTGRHWLYNATVGAGLPVNHTVRDLRDSGDSILAISGIFSGTLSWLFLQFDGSVPFTELVDQAWQQGLTEPDPRVDLSGQDVMRKLVILAREAGYDIEPNQVRVESLVPAGAESGSVDQFFENGEALNQQMIQRLEAAKEMGLVLRYVARFDANGKARVGVEAVRTDHPLASLLPCDNVFAIESRWYRDNPLVIRGPGAGRDVTAGAIQSDLNRLSQLL | not soluble |
| MIVGIGIDIIELNRIEKMLDGKLKFMERILTENERNVAKGLKGSRLTEFVAGRFAAKEAYSKAVGTGIGKEVSFLDIEVRNDDRGKPILITSTEHIVHLSISHSKEFAVAQVVLESSSS | not soluble |
| GLDTIPTTYVDAGSVFGKTGDAEKVLNGGWNYLMETFNSYANPGYGAMLRANDAMGSDVVLNSKYGFRTHNEFSAIYGKGGTNTLSWLLAYRVINDCNGVLDNIDAAEGTQADRNRIKGQALALRGFLYLHLASCYSFAIDKDPDAVCAPIYTQSTDETIAAEGKPASSVSEVYAQSINDLEEALELIPETYVRDAKHKIDNEVVLGILSRACLYARQWEKAKTYSDKLLAKDNYLMTESEYKAGFNSVDNKEWIWGHAQTNDQSNASYQFHYLDTTTKGSYYYSFNVDPYFRDLFEDGDYRKEMLFWATDPGADVESAAYVWMRNSKFRFRDIENQLGDIVLMRVAEIYLINAEAKAHLNDPDAINKLNDLKTARGAKTIHTNLSQQDLLETIWLERRKELWGEGFSLIDIIRNQQTVVRNAYPEGPIDYIYTDENGQTHTLKKKTQGHRFFNFPDKSAFCPNSKYYLYRITDSEELANKNLYKDHPKLSIYTK | soluble |
| MFCSSNIPIRLRDKKENNSIIVLPGGSEKSAAGQWRPHLPT | not soluble |
| MTELLVTPKSLSHMETLIDLGADAFVIGEQKFGLRLPGEFNRQQMTEAVALAHKNDKKVYAAVNGLFHNYHLDAVEDYINFLHEIRVDRIIFGDPAVVMYVKAQENPIPLHWNAETLVTNHFQCNYWGKRGASRAVLARELNLDEIINIKENSNVEIEVQVQGMTCMFQSKRMLLGNYYTFQDRQMKIERRNDEQSLLLYDEERQNNYPVYEDYNGTHIMSPNDICLIEELAPFFEAGIDSFKIDGILQTEEYINVVTEQYRQAIDLYNEDPEIYEDEKFMLMDPIEEIQPDHRPFDEGFLYKQTVY | not soluble |
| MPDQPSHNPAEHTTGEAPAPDALRADARRNRERVLEAAREVFSARGVDAPMSAVARRAGVGVATLYRRFPTRSSLVAAAFDDQLTVCAAAFDEALADPDPGHGLYTLLRKVCTTLVTDRGFETVFMAGFPASLDYDRERACAEERLAHLVRRARDAGRLREDFSPADIPLLLLAVSGLASQPPETAVPAAHRLLTYLFQSFQADPPPRPAPLPPAPTLDLSGLHRPAERP | not soluble |
| MADTGEVQFMKPFISEKSSKSLEIPLGFNEYFPAPFPITVDLLDYSGRSWTVRMKKRGEKVFLTVGWENFVKDNNLEDGKYLQFIYDRDRTFYVIIYGHNMCSEYRDFPQVAVEVDDYENGEEEEDGDDQDKHQ | soluble |
| MGLGSSKRKEEPPHKSEPKTVGRVKRAGARPDEMIAKYAEVLKTRGILPEYFLVHEAKSSQYIDEDGDVANEFYQETMSDGEKRRLCRLMKNLRPKGKERYAIPRLKHDIPVVIWEVQQPQET | not soluble |
| MSLSEKVTIYDIAEKLNITAATVSRALNNNPKIKESTRELVIKTAASMNYKQNKLALALKSGRSNNIGVIVPRIDSNFFASVIRGIEEELQPHGYQVIICQTHESKQRENENLYTLIDAQVDGILMSVTDVTSENDDAFNNVLQKNVPLIFFDRSKHIDGVSSVTINDFRGGYLTTKHLINEGCRYIAHFSGDQSLEIFKNRFLGYKQALLDHGIEFKEEYVIPVKSMVDAGKEAVDKLLQLETPPDAIFSSSDFAALGAIQELKERNISIPNEFCVAGFSNEPFTKFMELSITSVDQSPLEMGKMAARVFLEQVDKTDTIKIEKKVVLAPELHIRKSSSRTNFEGHHHHHH | soluble |
| MIISDVLYGEFEVDQVVEELISSKSMQRLKGIHQNGASYLMNEKWNVTRFDHSVGVMLLVKKLGGSVKEQIASLLHDVSHTAFSHVIDYVFDNEDESYHEEIFSSVVKNSEIPAILAKHGYNYEDILLDDSKWTLLERSAPELCADRVDYTLRDMYTYGYISLEEVHRFLEDIIAVEGKMVVQSVEMAEWFTETYYKEVIDFFMKPMNIYGNDMLAKTLKLSLHKKVIHADDFLLEDEELISKLQQCNDPEVEALLSKVHPNVKVKEDRNDYDLHQKNKVRLIDPPLLREGKIVQSSVVSENIRQISDIAYEKAVRGMYVKVISN | not soluble |
| MGSDKIHHHHHHMHLTQSTISQQLARLEESVGHSLIDRTARPLQLTASGEYLIGYAQRILTLQQEAEAVLKDPAGSIPIRIGLPEDMMSTAMAEVFGLFAQEHRTIRLDVTSGLSRNLTERYRNGELDIVIVKESAASADCYASFPEEMAWFESENAITPLSEPIRLVTFPQGGLYRDEMFETLERERRRWYIAFTGSSLESVLVSVETGLGISLLPVSTTKGRRVRRYKSLGEASPMVVSIYTWEKAGLISQLVDHMTTVLHDRFQSGS | not soluble |
| VLSRIQFVSRFGSNLVHIEGVKGSGKSWLAQRYLEKWCDDADQVLLMCHPNQSIQQQRGIILKQVVRDPLFNESDSVVDSVGRMLAGEKCNLVLAIDDAHLLSSELLSELWLLVQKAQSAPNWQINILLFAEKGKLTQTLSQMSYGQDNKPVDIDINP | not soluble |
| EHVEMLSAAGATVVAFDPLSEQLPQCDGLIIPGGFPEEHCDVLEQRADLKQQVCDVIAQGIPVHAECAGLLWLLSTLDGRPMLDVIPTHGAMGRRLTLGYRDAVVVHDSVIYRAGERVTGHEFHHTAIADSVVPGWDSAWGWRAWDGSPKVEGFVSGNVHASYLHVHPAAVPAAVRRFVEACAR | not soluble |
| MSLSHQQKVYIPKEARTNQYITAEIKVTDELLNQYPDYHSCYQTLSRIIFNLAEQHDLRNVHVITNDKLPVVRYHTEAYCFQTAEQILFFYNPAYHEAQNLFTADNYRARKLRIVFLATGDEIRSNSANFHTRVQEFLNELMPKLPIKDLKVKIRDHQHLSYDLFAKSKGNKETYGYKLRAIAPRYKARKCELPENVSSLTYVTVSLPLSRKLKQGLLPESATDFSPLYQHLEDNFLKAAANKQLTRLAMIANGLTPLVRNSKFEKLDSKAEVQMIGFDPNATEQQVIRRWDADNLVEAAHFTIVAGAKDCDDAGYGRFMNNVEAALKSFAAEIGLDPEREDLVTRFHQHISYQL | soluble |
| MLSRHINYFLAVAEHGSFTRAASALHVSQPALSQQIRQLEESLGVPLFDRSGRTIRLTDAGEVWRQYASRALQELGAGKRAIHDVADLTRGSLRIAVTPTFTSYFIGPLMADFYARYPSITLQLQEMSQEKIEDMLCRDELDVGIAFAPVHSPELEAIPLLTESLALVVAQHHPLAVHEQVALSRLHDEKLVLLSAEFATREQIDHYCEKAGLHPQVVIEANSISAVLELIRRTSLSTLLPAAIATQHDGLKAISLAPPLLERTAVLLRRKNSWQTAAAKAFLHMALDKCAVVGGNESR | not soluble |
| FPAISEHFTEDYSSHTEQMLDLVLDSTDMRIEDGKRINPAFMFAAMLWYPLCALADKLMDQHNLCHYDAIMEASNIILDDQVRTIAIPRRHTATIREIWQLQLRLPRRNGKRAFRLMELNKFRAGFDFLEMRGEIEGGDTLKLAKWWETFQNAGREMRQAMAADLDGQAPKSGQRRRKTFRKKKSKPKS | not soluble |
| MGSDKIHHHHHHMFSQTIFFGMKQSARGVSVAFSTLQEASMHKRVLIQAASALLALQFMAVPVFAAGSSGGGSDQTVTQCKKGEVWDKKKKKCVAPQEGMLDDDSIYDAGHALAMAGRYDEAISVLTLAANKQDPRILNYLGYSHRHSGRVTVGLGYYEEALRIDPNYTLVREYLGEAHLQIGDLAGAQQQLMEIEKRTGKGSREYGMLSEQIDHFMRS | not soluble |
| MGSSHHHHHHGKTIFVIVPTNEEQVAFLEALAKQDELNFDWQNPPTEPGQPVVILIPSDMVEWFLEMLKAKGIPFTVYVEEGGSENLYFQGGGGGGRAAGTGDFTAAQRTNTLAVLQAFGRAIPKLGEKWAGNDFCSWEAVLCNAPDVYVSGISPTYAGTLPEMPVNVDYRHVVIKQLDFSEMGPGLSGTLPASWHSMTSLESLSIEKCESISGSVPPEWGSMTSLSVLNLRGTGISGTLPPQWSGMSKARSLQLQDCDLSGSLPSSWSAIPMLASVSLKGNKFCGVCRTRGIRRLVLLWTSRTSTRAATAWLLRTAQRPPLSPPPRQRPPRTSLTFPLRRGPRLSRLPQPALRHRLNPQPPLRHRLNPRPLLPQQTRRLLHQRRSARWMGVRCARGTPLRGARGAVRTTS | not soluble |
| MNNIGVPAREVDVVVTGAGQAGLSSAFHLRRTGFEPERDFVVLDHAPRPGGAWQFRWPSLTYRKVHGMHALPGMELTDADPSRPSSEVIAEYFDTYERTFDLRVRRPVDVTAVREGEGGRLLVQTSDGTWATRALINATGTWDRPFWPRYPGQESFRGRQLHTAQYPGPEEFAGQRVVVVGGGASGTQHLMEIAPYAASTTWVTRRPPVFREGPFSEDVGRAAVAMVEERVRRGLPPRSVVSVTGLPLNDAVRRAIADGVLDRLPVFDRITPDGVEWDDGRRVAADVILWATGFRAAIDHLAPLRLRAPGGGIRVEGTRVVADPRIHLVGYGPSASTIGANRAGRAAVRDIRRLLAGEPLTVLEHHHHHH | soluble |
| MAKKKKEILFCDYYEDWVETYKVGAIEDVTLNKYYVAARQLRDICPKLLMSDFSRKDYQLIMNEYGKTHEKQTAKDFHHHIKAAILDAYHDGLLKSDPTYRAVIKGKEPGKKKLEHHHHHH | soluble |
| MHHHHHHGKPIPNPLLGLDSTENLYFQGIDPFTDVAAPSPAAAAEPGPAARPRSTRGQVRLPGGEFAMGDAFGEGYPADGETPVHTVRLRPFHIDETAVTNARFAAFVKATGHVTDAERFGSSAVFHLVVAAPDADVLGSAAGAPWWINVRGAHWRRPEGARSDITGRPNHPVVHVSWNDATAYARWAGKRLPTEAEWEYAARGGLAGRRYAWGDELTPGGRWRCNIWQGRFPHVNTAEDGHLSTAPVKSYRPNGHGLWNTAGNVWEWCSDWFSPTYYAESPTVDPHGPGTGAARVLRGGSYLCHDSYCNRYRVAARSSNTPDSSSGNLGFRCANDADLTSGSAAE | soluble |
